Data from the nanobody polyreactivity screen of Harvey et al. (2022).

Test: yeast display, Sf9 membrane polyspecificity reagent, FACS + sequencing; frameworks hold sequencing errors
Outline: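 Nanobodies came from a synthetic yeast display library in Saccharomyces cerevisiae BJ5465, induced with galactose for 36–48 hours and stained for 1 hour at 4 °C with 10% biotinylated, detergent-solubilized Sf9 membrane reagent. Cells were enriched on streptavidin microbeads and then FACS-sorted, with low and high (top ~1%) gates set on anti-HA fluorescence for expression and streptavidin fluorescence for reagent binding. Each polyreactivity label reflects the gate a clone came from. Genes were amplified by colony PCR, sequenced by MiSeq 2 × 250 and filtered by CDR length.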

Sequence	polyreactivity (PSR sort gate)
QVQLVESGAGLVKAGCSLRISCAASGSSFVTYDMGWYRQAPGKERELVAGISGSGSTNYADSVKGRFTISRDNAKNTVYLQMNSLKPEDTAVYYSAAEYEYLWSQYLTDYGYDYWGQGTQVTVSS	low polyreactivity
QVQLVESGGGLVQAGGSLRLSCAASGSTFGAYAMGWYRQAPGKERELVAAISSSDGSTYYADSVKGRFTISRDTAKNTVYLQMNSLKPEDTAVYYCAAEYYSAVYIDEYWYDYWGQGTQVTVSS	high polyreactivity
QVQLVESGGGLVQAGGSLRLSCAASGRTFVKNAMGWYRLAPGKERELVAAISRRGGSTYYADSVKGRFTISRDNAKNTVYLQMNSRKPEDTAVYYCAAPYTRPTTGYDYWGQGTQVTVSS	high polyreactivity
QVQLVESGGGLVQAGGSLRLSCPASGSIFRSYAMGWYRPAPGKERELVASISRRGGSSYYADSVKGRFTISRDNAKNTVYLQMNSLKPEDTAVYYCAAVRYNSRGSTTPSEMYYWGQGTQVTVSS	low polyreactivity
QVQLVESGGGLVQAGGSLRLSCAASGIIFVKYAMGWYRQAPGKERQLVAAITSGGSTYYADSVKGRFTISRDNAMYTVYLQMNSLKPEDTAVYYCNADSWFLYFFTINGYWGQGTQVTVSS	high polyreactivity
QVQLVESGGGLVQAGGSLRLSCAASGSIFARYTMGGYRPAPGKASELVAAISTSGSRTYYADSVKGRFTISRDNAKKTVYLQRYSLKPEDTAVYFCAARNGGRYAPGLDYWGQGTQVTVSS	high polyreactivity
QVQLVESGGGLVQAGGSLRLSWAASGSTFIGYAMGWYRQAPGKERELVAAISWSGGLTYYADSVKGRFTFSRDNAKNTVYLQMNSLKPEDTAVYYCNTVPYGISVQFNYWGQGTQVTVSS	high polyreactivity
QVQLVESGGGLVQAGGSLRLSCAASGSTFTLNAMGWYRQAPGKERELVADISWSSGRTYYADSVKGRFTISRDTAKNTVYLQMNSLKPEDTAVYYCATEDFWNVKFYAYYPEFDYWGQGTQVTVSS	low polyreactivity
QVRLVESGGGLVQAGGSLRLRCAASGSTFYTYAMGRYRQAPGKERELVAAITFIDGSTYYADSVKGRFTISRDNANNTVYLQMNSLKPEDTAVYYCAAASRGWGYPLYYSTDEYWGHGTQVTVSS	low polyreactivity
QEQLQESGGGLVQAGGSLRLSCAAIGSNIPTIYMGWYRHAPGKEREFVAAIGKGCSTYYADSVKGRFTISRDNALKTVYLQMNSLIPEDNAVYYCAFDPYASQDLAYWGQGTLVTVSS	low polyreactivity
QVQLVESGGGLVQAGGSLRLSCAASGSTFSPYAMGWYRQAPGKERELVANITISGGSTYYADSVKGRFTISRDTAKNTVYLQMNSLKPEDTAVYYCNADSLIRWLFTVVILDYWGQGTLVTVSS	low polyreactivity
QVQLVESGGGLVQAGGTLRLSCAASGRTYYGYAMGWYRQATGKERQLVAAIRSTTGSTYYADSVKGRFTISRDNAKITVYLQMNSLKPEDTAVYYCASAYPFYADMDYWGQGTQVTVSS	low polyreactivity
QVQLVESGGGLVQAGGSLRLSCAASGSTFGGYAMGWYRPAPGKERELVAAISGSGVRTYYADSVKGRFTISRDNAKNTVYLQMNSLKPEDTAVYYCAKRVRYPGDRYYYWGQGTQVTVSS	high polyreactivity
QVHLVESGGGLVQAGGSLRLSCAASGRTFVYYAMGWYRQAPGKERELVAAITSVGSTYYADSVKGRFTISRDNAKNTVYLQMNSLKPEDTAVYYCAKDTWAYPYYWPYDDYWGQGTQVTVSS	low polyreactivity
QVQLVESGGGLVQAGGSLRLTCAASGRIFYGNALGWYRQAPGKERELVAAISSGGGSTYYADSVKGRFTISRDNAKNTVYLQLNSLKPEDTAVYYCAADPVHRFPGTGGFWGKGTQVTVSS	low polyreactivity
QVQLVESGGGLVQAGGSLRLSCAASGSTFGPNAMGWYRQAPGKERELVAAINTRGGSTYYADSVKGRFTISRDNAKNTVYLQMNSLKPEDTAVYYCAAEYVVWYLDRFNYWGQGTQVTVSS	high polyreactivity
QVQLVESGGGLVQAGGSLRLSCAASGIIVPYNAMGWYRQEPGKVRYLVSAITSGGSTYYADSVKGRFTISRDNAKNTVYLQMNSMKPEDTAVYYCAKVPLSARRNNQSWAYDYWGQGTQVTVSS	low polyreactivity
QVQLQESVGGLVQAGGTQRLRCAASGNIFPTDRMGWYRQAPGKELEFVATISHGGSTNYADSVKGRFTISRDNAKNTVYLQMNSLKPEDTAVYYCAVWSLGRWRHYYWGQGTQVTVSS	low polyreactivity
QVQLVESGGGLVQAGGSLRLSCAASGRIFRVYAMGWYRQAPGKERELVAAISSRGGRTYYADSVKGRFTISRDNAKNTVYLQMNSLKPEDTAVYYCAADGRSSSRATSRYDYWGQGTQVTVSS	high polyreactivity
QDQLVESGGGLVQARGSLRLSCASSGSTFDTNTMGWYRQAPGKERELVASNSRGTSTKYADSVKGRFTISRDNAKNTVYLQMNSLKPEDTAVYYCNAVSRDKSLYDYWGQGTQVTVSS	high polyreactivity

Sequence	polyreactivity (PSR sort gate)
QVQLVESGGGLVQAGGSLRLSCAASGNNLSVYTMGWYRQAPGKERELVATITYSGDRTYADSVKGRFTISRDNAKNTVYLQMNSLKPEDTAVYYCAKRNFGSYIRRGHWGQGTQVTVSS	low polyreactivity
QVQLVESGRGLVQAGGSLRLSCAASGGTFSPYAMGWYSQGPGKDRELVASITGSGGSTYYADSVKGRFTISRGNATTTVNLQMTSLNPEDTAVYYCAAQGYWTYWPYLLRLYDYWGQGTQVTVSS	low polyreactivity
QVQLVESGGGLVQAGGSLRLSCAASGRIFSVYAMGWYRPAPGKERELVAAITRVGSTNYADSVKGRFTISRDNAKNTVYLQMNSLKPEDTAVYYCAASKYGSLSGYWGQGTQVTVSS	high polyreactivity
QVQLVESGGGLVQAGGSLRLSCAASGSTFEPYARGWYRQAPGKERELVAAISSSGSTNYADSVKGRFTISRDNAKNTVYLQMNSLKPEDTAVYYCNARRQRSPIEVCERGYWGQGTQVTVSS	high polyreactivity
QVQLVETGGGLVQAGGSLRLSCAASGRIFSPYALGWYRQAPGKERELVAAISYDDGITYYADSVKGRFTISRDNAKNTVYLQMNSLKPEDTAVYYCAADSVTRPAGDYWGQGTQVTVSS	low polyreactivity
QVQLVESGGGLVQAGGSLRLSCAASGGTFSYNTMGWYRQAPGKERELVAVITFSGGSTYYADSVKGRFTISRDNAKNTVYLQMNSLKPEDTAVYYCNARSYPRWLRYDYWGQGTQVTVSS	low polyreactivity
QVQLVESGGGLVQAGGSLRLSCAASGSIFHGYAMGWYRQAPGKERELVAAISYTGGRTYYADSVKGRFTISRDNAKNTVYLQMNSLKPEDTAVYYCADDSQLTKFYYWGQGTQVTVSS	high polyreactivity
QVQLVESGGGLVQAGCSLRLSCAASGFIFGPNAMGWYRQAPGKERELVAAISWIGSSTYYADSVKGRFTISRDNAKNTVYLQMNSLKPQDNAVYYCAADSSERRLMDFDYWGQGTQVTVSS	low polyreactivity
QVQLVESGGGLVQAGGSLRLSCAASGSIFTGYAMGWYRQAPGKERELVAAIRTRGGSTYYADSVKGRFTISRDNAKNTVYLQMNSLKPEDTAVYYCAKRYYGWYGNFDYWGQGTLVTVSS	high polyreactivity
QVQLVESGGGLVQAGGSLRLSCAASGSTSRYNAMGWYRQAPGKERELVARINSGGTTNYADSVKGRFTISRDNAKNTVYLQMNSLKPEDTAVYYCNAYYYFWGQGTQVTVSS	low polyreactivity
QVQLVESGGGLVQAGGSLRLSSAASGRTFYYNAMGWYRQAPGKEREFVAVMTSSGGSTYYADSVKGRFTISRDNAKNTVYLQMNSLKPEDTAVYYSAASNTEQQLVVLIEVYYTRYDYWGQGTQETVSS	low polyreactivity
QVHLVESGGGLVQAGGSLRLSCAASGIIISSYAMGWYRQAPGKERELVAAITWGGTRTNYADSVKGRFTISRDNAKNTVYLQMNSLKPEDTAVYYCAADKYLYGRLTRNFHYYYWGQGTQVTVSS	low polyreactivity
QVQLVESGGGFVQAGGSLRLSCAASGFIFYMFAMGWYRQAPGKERELVAAITSRGGSTFYADSVKGRFTISRDNAKNTVYLQMNSLKPEDTAVYYCAAVRDLYTYRLGYWGQGTQVTVSS	high polyreactivity
QVQLVESGGGLVQAGGSLRLSCAASGRILRYYAMGWYRQAPGKERELVAVITSSDGSTYYADSVKGRFTISRDNAKNTVYLQMNSLKPEDTAVYYCAADYHWYRRPGYNYWGQGTQVTVSS	low polyreactivity
QVQLVESGGGLVQAGGSLRLSCAASGIIFLFYAMGWYRQAPGKERELVASITWSGGSTYYADSVKGRFTISRDNAKNTVYLQMNSLKPEDTAVYYCAASVKIISYLVHSEFLGGELDYWGQGTQVTVSS	low polyreactivity
QVQLVESGGGLVQAGGSLRLRCAASGSIFSNNAMGWYRPAPGKERELVAAITRSGGNTYYADSVKGRFTISRDNAKNTVYLQMNSLKPEDTAVYYCNAVHLRKMYYWGQGTQVTVSS	high polyreactivity
QVQLVESGGGLVQAGGSLRLSCAASGYTFFVYAMGWYRQAPGKERELVAAIDLNGGSTSYADSVKGRFTISRDNAKNTVYLQMNSLKPEDTAVYYCAAYSWVGYDYDYWGQGTQVTVSS	low polyreactivity
QVQLVESGGGLVQAGRSLRLICAASGSTFKRYAMGWYRQAPGKERELVAAITWTGGRTYYADSVKGRFTISRDNANYTVYLQMNSLKPEDTAVYYCAADDPHTAYGYWGQGTQVTVSS	high polyreactivity
QVQLVESGGGLVQAGGSLRLSCAASGITFAYYTMGWYRQAPGKERELVAGISSSGGRTYYADSVKGRFTISRDNAKNTVYLQMNSLKPEDTAVYYCAARFGYRGSTYTLTYGYWGQGTQVTVSS	high polyreactivity
QVQLVESGGGIVQAGGSLRLSCAASGITFGRNTMGWYRQAPGKERELVAAIDSGGNTYADSVKGRFTISRDNAKNTVYLQMNSLKPEDTAVYYCAVDGGEFSSYGYWGQGTQVTVSS	low polyreactivity
